In patent US20180282412A1 (ASIA BIOTECH PTE, published 2018):
Blank lines part the entries; values can stand above or below the binder they belong to.

Experiments:
[1] = target: T1, full-length human PD-1 expressed on transfected CHO-K1 cells (CHO/PD-1) (human, UniProt Q15116 25-288); experiment: flow cytometry competition on CHO/PD-1 cells, competitor FITC labelled Nivolumab at a sub-saturating concentration
T1 construct: also called PD-1-transfected CHO cells; cell surface PD-1

[2] = target: T2, PD-1-Fc fusion protein (extracellular region of human PD-1 fused to human Fc) (human); experiment: ELISA on coated human PD-1-Fc, HRP anti-human kappa
T2 construct: unlabelled when coated on plates or immobilized; also called human PD-1-Fc; PD-1-Fc-biotin
Protocol: (§1) Finally, TMB was added as a substrate for HRP, and the absorbance was measured at 450 nm.

[3] = target: T2, PD-1-Fc fusion protein (extracellular …); experiment: ELISA on coated PD-1-Fc, HRP anti-human kappa
[4] = target: T2, PD-1-Fc fusion protein (extracellular …); experiment: SPR (Biacore), ligand PD1-Fc-biotin, sample hu67D9, 25 C, fit 1:1 Binding
Protocol: (§2) Affinity constants were calculated from the ratio of the rate constants.

[5] = target: T3, CD28 (Homo sapiens (Human), UniProt P10747 19-152); experiment: ELISA on coated CD28, HRP anti-human kappa
T3 construct: also called CD28 family member CD28
Protocol: (§3) The specificity of anti-PD-1 antibodies was examined by detecting their binding to CD28 family members ICOS, CTLA-4 and CD28 (R&D System) using standard ELISA. […] Finally, TMB was added as a substrate for HRP, and the absorbance was measured at 450 nm.

[6] = target: T2, PD-1-Fc fusion protein (extracellular …); experiment: solution-equilibrium ELISA (Holash method): antibody preincubated with PD-1-Fc, free antibody captured on coated PD-1-Fc
Protocol: as §1

[7] = target: T2, PD-1-Fc fusion protein (extracellular …); experiment: competition ELISA on coated PD-1-Fc, blocked ligand biotin labelled PDL1-Fc, HRP-avidin
[8] = target: T4, ICOS (Homo sapiens (Human), UniProt Q9Y6W8 21-140); experiment: ELISA on coated ICOS, HRP anti-human kappa
T4 construct: also called CD28 family member ICOS
T4 sequence: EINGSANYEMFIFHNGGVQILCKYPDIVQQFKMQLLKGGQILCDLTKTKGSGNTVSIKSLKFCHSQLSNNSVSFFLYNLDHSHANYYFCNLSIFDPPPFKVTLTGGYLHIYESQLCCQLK
Protocol: as §3

[9] = target: T5, Cynomolgus monkey PD-1-Fc (Cynomolgus monkey, UniProt B0LAJ3 25-170); experiment: ELISA on coated Cynomolgus monkey PD-1-Fc, HRP anti-human kappa
T5 construct: not shown: The Fc part and any linker
Protocol: as §1

[10] = target: T2, PD-1-Fc fusion protein (extracellular …); experiment: ELISA on coated PD-1-Fc, HRP anti-human kappa; remark: listed apart in the source
[11] = target: T1, full-length human PD-1 expressed on …; experiment: flow cytometry on CHO/PD-1 cells, FITC anti-human antibody
Protocol: After 1 hour incubation, the cells were washed and an FITC labelled anti human antibody was incubated for 1 hour. Then the cells were washed and the flow cytometric analysis was performed using a FACScan flow cytometry.

[12] = target: T6, CTLA-4 (Homo sapiens (Human), UniProt P16410 36-161); experiment: ELISA on coated CTLA-4, HRP anti-human kappa
T6 construct: also called CD28 family member CTLA-4
T6 sequence: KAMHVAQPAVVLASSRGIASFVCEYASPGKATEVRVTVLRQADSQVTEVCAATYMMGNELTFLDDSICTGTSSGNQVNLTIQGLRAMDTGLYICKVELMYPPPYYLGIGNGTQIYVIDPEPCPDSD
Protocol: as §3

[13] = target: T2, PD-1-Fc fusion protein (extracellular …); experiment: SPR (Biacore), PD-1-Fc immobilized, antibody as analyte
Protocol: as §2

[14] = target: T7, mouse PD-1-Fc (mouse, UniProt Q02242 25-169); experiment: ELISA on coated mouse PD-1-Fc, HRP anti-human kappa
T7 construct: extracellular domain; not shown: Fc part
T7 sequence (looked up): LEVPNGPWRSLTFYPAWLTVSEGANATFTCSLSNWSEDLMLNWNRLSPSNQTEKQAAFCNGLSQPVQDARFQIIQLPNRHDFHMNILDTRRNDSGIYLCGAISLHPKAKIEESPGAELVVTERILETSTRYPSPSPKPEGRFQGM
Protocol: as §1

[15] = target: T2, PD-1-Fc fusion protein (extracellular …); experiment: competition ELISA on coated PD-1-Fc, competitor biotin labelled Nivolumab, HRP-avidin
[16] = target: T1, full-length human PD-1 expressed on …; experiment: flow cytometry blocking assay, 10 ug/ml antibody with biotin-PD-L1-Fc (blocked ligand) on CHO/PD-1 cells, Avidin-PE
Protocol: Then the mixture was added to the CHO/PD-1 cells. After 1 hour, the cells were washed and binding of was detected with Avidin-PE. Flow cytometric analysis was performed using a FACScan flow cytometry (Becton Dickinson).

[17] = target: T6, CTLA-4; experiment: ELISA on coated CTLA-4, HRP anti-mouse kappa
Protocol: as §3

[18] = target: T2, PD-1-Fc fusion protein (extracellular …); experiment: ELISA on coated PD-1-Fc, HRP anti-mouse kappa
[19] = target: T5, Cynomolgus monkey PD-1-Fc; experiment: ELISA on coated Cynomolgus monkey PD-1-Fc, HRP anti-mouse kappa
Protocol: as §1

[20] = target: T3, CD28; experiment: ELISA on coated CD28, HRP anti-mouse kappa
Protocol: as §3

[21] = target: T2, PD-1-Fc fusion protein (extracellular …); experiment: ELISA on coated human PD-1-Fc, HRP anti-mouse kappa
Protocol: as §1

[22] = target: T7, mouse PD-1-Fc; experiment: ELISA on coated mouse PD-1-Fc, HRP anti-mouse kappa
Protocol: as §1

[23] = target: T4, ICOS; experiment: ELISA on coated ICOS, HRP anti-mouse kappa
Protocol: as §3

IC50 (read off the curve) [1]: ~5000 ng/mL
EC50 (read off the curve) [2]: ~10 ng/mL
EC50 (read off the curve) [3]: ~10 ng/mL
koff [4]: 2.77e-05 s⁻¹
kon [4]: 8.63e+06 M⁻¹ s⁻¹
binding result [5]: no binding (tested: 1000 ng/ml)
Kd [6]: 0.0154 nM
IC50 (read off the curve) [7]: ~2 ng/mL
binding result [8]: no binding (tested: 1000 ng/ml)
EC50 (read off the curve) [9]: ~10 ng/mL
EC50 (read off the curve) [10]: ~10 ng/mL
EC50 (read off the curve) [11]: ~20 ng/mL
binding result [12]: no binding (tested: 1000 ng/ml)
Kd [13]: 0.00321 nM
binding result [14]: no binding (tested: 1000 ng/ml)
IC50 (read off the curve) [15]: ~5000 ng/mL
B1: anti-PD-1 humanized antibody hu67D9 (antibody, human IgG4 S228P, kappa, V domains shown)
VH: EVQLVESGGGLVQPGGSLRLSCAASGFTFSTYGMSWVRQAPGKGLEWVATISGGGRDTYYPDTVKGRFTISRDNSKNTLYLQMSSLRAEDTAVYYCARQDYGNYVWFAYWGQGTLVTVSS
VL: DIVLTQSPASLAVSPGQRATISCRASESVDSYGISFMHWFQQKPGQPPQLLIYSTSNRGSGVPARFSGSGSGTDFSLTINPVEADDTANYFCQQSQEVPWTFGQGTKVEIKR
notes: also called humanized 67D9; humanized Ab

EC50 (read off the curve) [2]: ~10 ng/mL
binding result [5]: no binding (tested: 1000 ng/ml)
Kd [6]: 0.0169 nM
binding result [8]: no binding (tested: 1000 ng/ml)
EC50 (read off the curve) [9]: ~10 ng/mL
EC50 (read off the curve) [10]: ~10 ng/mL
binding result [12]: no binding (tested: 1000 ng/ml)
binding result [14]: no binding (tested: 1000 ng/ml)
binding result [16]: binds
B2: 67D9 chimeric antibody (c67D9) (antibody, human IgG4 S228P, kappa, V domains shown)
VH: EVILVESGGGLVKPGGSLKVSCAASGFTFSTYGMSWVRQTPEKRLEWVATISGGGRDTYYPDTVKGRFTISRDNAKNTLYLQMSSLRSEDTALYYCARQDYGNYVWFAYWGQGTLVTVSA
VL: not shown
notes: Human kappa light chain (detected with anti-human kappa); also called chimeric Ab

binding result [17]: no binding (tested: 1000 ng/ml)
EC50 (read off the curve) [18]: ~10 ng/mL
EC50 (read off the curve) [19]: ~10 ng/mL
Kd [6]: 0.0124 nM
binding result [20]: no binding (tested: 1000 ng/ml)
EC50 (read off the curve) [21]: ~10 ng/mL
binding result [22]: no binding (tested: 1000 ng/ml)
binding result [16]: binds
binding result [23]: no binding (tested: 1000 ng/ml)
B3: 67D9 (mouse anti-PD-1 monoclonal antibody) (antibody, mouse IgG2a, V domains shown)
VH: B2 VH
VL: not shown
notes: Purified from hybridoma supernatant by Protein G; also called mouse Ab
